B1: human recombinant MMP2 (R&D Systems, catalog No: 902-MP) (protein)
chain: YNFFPRKPKWDKNQITYRIIGYTPDLDPETVDDAFARAFQVWSDVTPLRFSRIHDGEADIMINFGRWEHGDGYPFDGKDGLLAHAFAPGTGVGGDSHFDDDELWTLGEGQVVRVKYGNADGEYCKFPFLFNGKEYNSCTDTGRSDGFLWCSTTYNFEKDGKYGFCPHEALFTMGGNAEGQPCKFPFRFQGTSYDSCTTEGRTDGYRWCGTTEDYDRDKKYGFCPETAMSTVGGNSEGAPCVFPFTFLGNKYESCTSAGRSDGKMWCATTANYDDDRKWGFCPDQGYSLFLVAAHEFGHAMGLEHSQDPGALMAPIYTYTKNFRLSQDDIKGIQELYGASPDIDLGTGPTPTLGPVTPEICKQDIVFDGIAQIRGEIFFFKDRFIWRTVTPRDKPMGPLLVATFWPELPEKIDAVYEAPQEEKAVFFAGNEYWIYSASTLERGYPKPLTSLGLPPDVQRVDAAFNWSKNKKTYIFAGDKFWRYNEVKKKMDPGFPKLIADAWNAIPDNLDAVVDLQGGGHSYFFKGAYYLKLENQSLKSVKFGSIKSDWLGC
B2: human recombinant MT-SP1 (R&D Systems, catalog No: 3946-SEB) (protein)
chain: VVGGTDADEGEWPWQVSLHALGQGHICGASLISPNWLVSAAHCYIDDRGFRYSDPTQWTAFLGLHDQSQRSAPGVQERRLKRIISHPFFNDFTFDYDIALLELEKPAEYSSMVRPICLPDASHVFPAGKAIWVTGWGHTQYGGTGALILQKGEIRVINQTTCENLLPQQITPRMMCVGFLSGGVDSCQGDSGGPLSSVEADGRIFQAGVVSWGDGCAQRNKPGVYTRLPLFRDWIKENTGV

Tests used:
[1] = target: internally quenched peptide probe with CM 7041 (PWGL, SEQ ID NO: 100)
[2] = target: internally quenched peptide probe with CM 7047 (PYGL, SEQ ID NO: 103)
[3] = target: internally quenched peptide probe with CM 7049 (PFGL, SEQ ID NO: 104)
[4] = target: internally quenched peptide probe with CM 7050 (PRGL, SEQ ID NO: 105)
[5] = target: internally quenched peptide probe with CM 7051 (PMGL, SEQ ID NO: 106)
[6] = target: internally quenched peptide probe with CM 7052 (PLGL, SEQ ID NO: 107)
[7] = target: internally quenched peptide probe with CM 7053 (PQGL, SEQ ID NO: 9)
[8] = target: internally quenched peptide probe with CM 7054 (PKGL, SEQ ID NO: 108)
[9] = target: internally quenched peptide probe with CM 7055 (PHGL, SEQ ID NO: 10)
[10] = target: internally quenched peptide probe with CM 7056 (PEGL, SEQ ID NO: 11)
[11] = target: internally quenched peptide probe with CM APMGLKH (SEQ ID NO: 7)
[12] = target: internally quenched peptide probe with CM PMGLK (SEQ ID NO: 64)
[13] = target: internally quenched peptide probe with CM PMGLKS (SEQ ID NO: 5)
[14] = target: internally quenched peptide probe with CM PWGLRS (SEQ ID NO: 181)
[15] = target: internally quenched peptide probe with CM RSPWGL (SEQ ID NO: 182)

Row | Protein | Probe Cleavage (kcat/KM) [11] [M⁻¹ s⁻¹] | Probe Cleavage (pM/s) [11] [pM/s] | Probe Cleavage (kcat/KM) [12] [M⁻¹ s⁻¹] | Probe Cleavage (pM/s) [12] [pM/s] | Probe Cleavage (kcat/KM) [13] [M⁻¹ s⁻¹] | Probe Cleavage (pM/s) [13] [pM/s] | Probe Cleavage (kcat/KM) [14] [M⁻¹ s⁻¹] | Probe Cleavage (pM/s) [14] [pM/s] | Probe Cleavage (kcat/KM) [15] [M⁻¹ s⁻¹] | Probe Cleavage (pM/s) [15] [pM/s] | further results
1 | B1 | 2.7e+06 | 81700 | 180000 | 4690 | 8.5e+06 | 119000 | 140000 | 3800 | 260000 | 11700 | stated: cleaved (kcat/Km, M-1s-1, bar on a log axis) [1]: PWGL, MMP2 bar ends between 1x10^3 and 1x10^4; kcat/KM (M^-1 s^-1) [2]: greater than 5×10^2 M^-1 s^-1; stated: cleaved (kcat/Km, M-1s-1, bar on a log axis) [2]: PYGL, MMP2 bar ends between 1x10^3 and 1x10^4; kcat/KM (M^-1 s^-1) [3]: greater than 5×10^2 M^-1 s^-1; stated: cleaved (kcat/Km, M-1s-1, bar on a log axis) [3]: PFGL, MMP2 bar ends between 1x10^3 and 1x10^4; stated: cleaved (kcat/Km, M-1s-1, bar on a log axis) [4]: PRGL, MMP2 bar ends between 1x10^4 and 1x10^5; the highest MMP2 bar of the ten peptide probes; stated: cleaved (kcat/Km, M-1s-1, bar on a log axis) [5]: PMGL, MMP2 bar ends between 1x10^4 and 1x10^5; stated: cleaved (kcat/Km, M-1s-1, bar on a log axis) [6]: PLGL, MMP2 bar ends between 1x10^4 and 1x10^5; stated: cleaved (kcat/Km, M-1s-1, bar on a log axis) [7]: PQGL, MMP2 bar ends between 1x10^4 and 1x10^5; stated: cleaved (kcat/Km, M-1s-1, bar on a log axis) [8]: PKGL, MMP2 bar ends between 1x10^4 and 1x10^5; stated: cleaved (kcat/Km, M-1s-1, bar on a log axis) [9]: PHGL, MMP2 bar ends just above the 1x10^4 tick; kcat/KM (M^-1 s^-1) [10]: greater than 5×10^2 M^-1 s^-1; stated: cleaved (kcat/Km, M-1s-1, bar on a log axis) [10]: PEGL, MMP2 bar ends between 1x10^3 and 1x10^4
2 | B2 | 77000 | 3330 | 1600 | 46.1 | 320000 | 14100 | 31000 | 1230 | 48000 | 2390 | 

Reference: patent US20260042849
